Legend:
casp3_mouse Casp3 [1] = molecular target: T1, casp3_mouse Casp3 (UniProt P70677)
T1 sequence: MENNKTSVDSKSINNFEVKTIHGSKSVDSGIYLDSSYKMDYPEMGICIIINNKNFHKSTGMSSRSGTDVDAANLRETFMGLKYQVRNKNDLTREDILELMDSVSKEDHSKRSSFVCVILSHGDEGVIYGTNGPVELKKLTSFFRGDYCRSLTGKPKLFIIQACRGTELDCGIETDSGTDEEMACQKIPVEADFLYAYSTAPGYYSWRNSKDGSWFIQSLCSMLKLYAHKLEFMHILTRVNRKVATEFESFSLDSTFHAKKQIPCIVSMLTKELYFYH

casp7_mouse Casp7 = molecular target: T2, casp7_mouse Casp7 (UniProt P97864)
T2 sequence: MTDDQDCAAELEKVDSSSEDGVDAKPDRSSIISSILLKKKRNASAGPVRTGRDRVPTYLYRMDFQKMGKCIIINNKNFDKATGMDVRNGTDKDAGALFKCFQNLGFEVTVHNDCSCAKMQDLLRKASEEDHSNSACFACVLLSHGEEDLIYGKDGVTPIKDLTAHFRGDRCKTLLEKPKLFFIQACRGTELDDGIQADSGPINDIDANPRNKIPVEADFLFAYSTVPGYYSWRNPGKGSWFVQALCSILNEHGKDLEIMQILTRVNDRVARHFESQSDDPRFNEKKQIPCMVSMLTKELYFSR

casp3_mouse Casp3 [2] = molecular target: T1, casp3_mouse Casp3; remark: listed apart in the source

Substance | effect of a mutation on the interaction (casp3_mouse Casp3 [1]) | effect of a mutation on the interaction (casp7_mouse Casp7) | effect of a mutation on the interaction (casp3_mouse Casp3 [2])
Small ribosomal subunit protein uS13 (Mus musculus) (from UniProt P62270) K88A | increasing interaction | decreasing interaction | 
Small ribosomal subunit protein uS13 (Mus musculus) (from UniProt P62270) Q87A |  |  | increasing interaction

Source: IntAct's records for PubMed 19759058
